According to patent US20260125457A1 (Janssen / Centocor, published 2026):
Positions count from the first letter of the chain named.

T1: HIS-CALRdel52 (produced in E. coli)
T1 construct: also called recombinant CALRdel52 protein; CALRdel53 target protein
T1 chain: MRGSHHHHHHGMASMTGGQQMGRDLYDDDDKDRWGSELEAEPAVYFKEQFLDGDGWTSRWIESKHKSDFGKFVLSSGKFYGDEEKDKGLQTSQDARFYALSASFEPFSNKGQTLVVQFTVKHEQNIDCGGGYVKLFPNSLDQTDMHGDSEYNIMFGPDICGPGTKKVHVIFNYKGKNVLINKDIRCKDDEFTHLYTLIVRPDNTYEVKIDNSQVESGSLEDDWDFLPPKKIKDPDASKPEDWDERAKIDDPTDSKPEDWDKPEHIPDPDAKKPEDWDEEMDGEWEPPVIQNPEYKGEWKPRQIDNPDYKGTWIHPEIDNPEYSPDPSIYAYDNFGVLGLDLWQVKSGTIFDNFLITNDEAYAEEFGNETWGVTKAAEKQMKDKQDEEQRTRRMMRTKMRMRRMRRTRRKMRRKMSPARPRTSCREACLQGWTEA

T2: 22 amino acid CALRmut-specific peptide (acetylation of the terminal amino-group; C-terminal -OH group)
T2 construct: also called 22aa CALRmut peptide; CALRmut target peptide
T2 peptide: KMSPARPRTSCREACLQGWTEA

B1: Clone 1 (Fab, V domains shown)
VH: QEQLKESGGRLVTPGTPLTLTCAVSGFSLDIYGMSWVRQAPGKGLEWIGIIYIEGITYYANWAKGRFTISKTSSTTLELKMTSLTTEDTAMYFCVAGVGRIWGPGTLVTVSS
VL: YVMMTQTPSSVSAAVGGTVTINCQASQSLYNNNNLAWFQQKPGQPPKRLIYPASTLASGVSSRFKGSGSGTQFTLTISDVQRDDAATYFCLGEFSCSSADCYAFGGGTEVVVK
notes: Rabbit/human chimeric Fab (human CH1, CK) on phage; also soluble Fab-AP
B2: Clone 20 (Fab, V domains shown)
VH: QSLEESGGRLVTPGTPLTLTCTVSGIDLSNNAISWVRQAPGKGLEYIGVIGNTGDTYYASWAKGRFTISKTSSTTVDLKMTSLTTEDTATYFCVRGPPSYSNSVKNIWGPGTLVTISS
VL: DPMLTQTPSSVSAAVGGTVTIGCQSSQSVYDKNWLSWYQQKPGQPPSRLIYDASKLESGVPSRFSGSGSGTQFTLTISGVQCDDAATYYCAGGFTGNVYAFGGGTKLEIK
notes: as for B1
B3: Clone 2 (Fab, V domains shown)
VH: B2 VH with L3V, D55T, T85A, E86S, I116V
VL: B2 VL with S78G
notes: as for B1
B4: Clone 10 (Fab, V domains shown)
VH: B2 VH with L3V
VL: B2 VL with A85V, K106E, L107V, E108V, I109V
notes: as for B1
B5: Clone 16 (Fab, V domains shown)
VH: QEQLKESGGRLVTPGTPLTLTCTASGFSLSNYYMSWVRQAPGKGLEWIGGISSRAGTWYASWAKGRFTISGTSTTMDLKITSPTTEDTATYFCARGLKIWGPGTLVTVSS
VL: DPVLTQTESPVSAAVGGTVTINCQASQSVYDDNNLAWYQQKPGQPPKRLIYPASTLASGVSSRFSGSGSGSQFTLTISDVQCDDAATYYCQGEFSCTSADCVAFGGGTEVVVK
notes: as for B1
B6: Clone 17 (Fab, V domains shown)
VH: QEQLEESGGRLVTPGTPLTLTCTVSGIDLSNNAMSWVRQAPGKGLEYIGVIGNTGTTYYANWAKGRFTISKTSSATVDLKMTSLTTDDTATYFCVRGPPSYSNSVKNIWGPGTLVTVSS
VL: B2 VL with P2V, G22N, Y38L, A100T, L107V, E108V, I109V
notes: as for B1
B7: Clone 18 (Fab, V domains shown)
VH: QSVEESGGRLVTPGTPLTITCTVSGFSLSSYAMSWVRQAPGKGLEWIGVIDSGGTTYYATWAKSRFTISKTQTKVALKITSPTTEDTATYFCARESYAGYDGYGHPIPYGMDPWGPGTLVTVSS
VL: DVVMTQTPSSVSAAVGGTVTINCQASQSLYNNKNLAWYQQKPGQPPKLLIYYASALASGVSSRFKGSGSGTQFTLTISGVQCDDAATYYCQGEFNCNSADCNSFGGGTEVVVK
notes: as for B1
B8: Clone 4 (Fab, V domains shown)
VH: B6 VH with T23K, M34I, T56D, N61S, A75T, D87E, V117I
VL: DPMLTQTPSSVSAAVGGTVTINCQSSQSVYNNNWLSWLQQKPGQPPNRLIYDASKLESGVPSRFSGSGSGTQFTLTISGVQRDDAATYYCAGGFTGNVYTFGGGTEVVVK
notes: as for B1
B9: Clone 21 (Fab, V domains shown)
VH: B6 VH with E5K, T13A, T19R, M34V, A75T, V117I
VL: B2 VL with P2V, M3V, L4M, K106M, L107V
notes: as for B1
B10: Clone 7 (Fab, V domains shown)
VH: B2 VH with S2Q, T12A, T18R, I33V, D55T, S60N, E86D, K105R, I116V
VL: B2 VL with K32N, S47N, E57A, Q81K, F94Y, A100S, K106M, L107V
notes: as for B1
B11: Clone 11 (Fab, V domains shown)
VH: B6 VH with E5K, T13A, T19R, M34V, A75T
VL: B8 VL with S10P, S25A, S36T, L38Y, E57A, S69F, R82C, G92A, F94W, T100S
notes: as for B1
B12: Clone 15 (Fab, V domains shown)
VH: B2 VH with S2Q, D55T, T85A, E86S
VL: B8 VL with P2V, M3V, L4M, R82C
notes: as for B1
B13: Clone 22 (Fab, V domains shown)
VH: QQLEESGGRLVTPGTPLTLTCTVSGIDLSNNAMSWVRQAPGKGLEYIGVIGNTGTTYYASWAKGRFTISKTSSTTVDLKMTSLTTEDTATYFCVRGPPSYSNSVKNIWGPGTLVTIS
VL: B8 VL with M3V, R82C
notes: as for B1

Biological target: T1, HIS-CALRdel52 (produced in E. coli)
Assay: QC monoclonal phage ELISA
Text: Next, recombinant CALRdel52 protein (SEQ ID NO: 5) and the 22 amino acid CALRmut peptide (SEQ ID NO: 1) were used for selecting specific binders from the immune rabbit/human Fab library prepared above. By DNA sequencing, 15 unique Fabs were identified and specific binding to the CALRmut target peptide was confirmed by phage ELISA and by QC ELISA after soluble expression of Fab-AP (Fab-conjugated to Alkaline Phosphatase).

Question: B1 was tested. Which “phage ELISA signal (Coating: CALR)” value did it give?
Answer: 2.92

Question: B2 was tested. Which “phage ELISA signal (Coating: CALR)” value did it give?
Answer: 2.69

Question: How did the “phage ELISA signal (Coating: CALR)” value turn out when B3 was run?
Answer: 2.87

Question: Which “phage ELISA signal (Coating: CALR)” value does the source give for B4 here?
Answer: 2.18

Question: With B5 as the binder, how does the “phage ELISA signal (Coating: CALR)” value read?
Answer: 2.94

Question: B6 was tested. Which “phage ELISA signal (Coating: CALR)” value did it give?
Answer: 2.23

Question: For B7, which “phage ELISA signal (Coating: CALR)” value is on record?
Answer: 1.91

Question: How did the “phage ELISA signal (Coating: CALR)” value turn out when B8 was run?
Answer: 2.54

Biological target: T2, 22 amino acid CALRmut-specific peptide
Assay: phage ELISA; QC ELISA of soluble Fab-AP

Question: Does B1 bind?
Answer: binds

Question: Does B2 bind?
Answer: binds

Question: Does B3 bind?
Answer: binds

Question: Does B4 bind?
Answer: binds

Question: Does B5 bind?
Answer: binds

Question: Does B6 bind?
Answer: binds

Question: Does B7 bind?
Answer: binds

Question: Does B8 bind?
Answer: binds

Question: Does B9 bind?
Answer: binds

Question: Does B10 bind?
Answer: binds

Question: Does B11 bind?
Answer: binds

Question: Does B12 bind?
Answer: binds

Question: Does B13 bind?
Answer: binds
